We go through 27 molecules from patent publication US20260167959A1, “APTAZYME-BASED REGULATABLE GENE EXPRESSION SYSTEMS” (REJUVENATE BIO INC, priority 2022, published 2026).

Where a chain is given by its changes, count along the chain named.

The data set deals with Renilla luciferase RNA. Put plainly: Barcoded aptazyme variant library screen: un-cleaved Renilla luciferase RNA by barcode read counts, HEK293-T cells. The class given is cell-based. Conditions: triplicate. Summed up:
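Aptazyme variants (seven theophylline aptamers inserted after each T3H48 ribozyme nucleotide, 9-nt barcoded) cloned into the 3′ UTR of Renilla luciferase in psiCHECK-2; cells cultured ± theophylline, in triplicate. RNA and DNA barcodes amplified and sequenced; normalized read counts gave un-cleaved RNA fraction and ON/OFF fold-change.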

The mark [1] stands for this setting: un-cleaved Renilla luciferase RNA by barcode read counts, with 1 mM theophylline (ON) over without theophylline (OFF), HEK293-T cells.
Setting [2] is: un-cleaved Renilla luciferase RNA, HEK293-T cells cultured with 1 mM theophylline (ON) over without theophylline (OFF), barcode read counts.

B1: RA347 (nucleic acid)
DNA: GCGCGTCCTGGATTCGCGGAAACGCAGAATACCAGCATCGTCTTGATGCCCTTGGAAGTCTGTACATCCAGCTGACGAGTCCCAAATAGGACGAAACGCGC
modifications: expressed or natural sequence
For the molecule B1, under setting [1], the “Fold change in RNA expression between the ON state and the OFF state” value (“Fold change” for short) is reported as 0.9.

B2: RA343 (nucleic acid)
DNA: GCGCGTCCGGAATACCAGCATCGTCTTGATGCCCTTGGAAGTCCGCTGGATTCGCGGAAACGCGTACATCCAGCTGACGAGTCCCAAATAGGACGAAACGCGC
modifications: expressed or natural sequence
As for B2, the “Fold change” value under setting [1] is 0.9.

B3: RA361 (nucleic acid)
DNA: GCGCGTCCTGGATTCGCGGAAACGCGTACATCCAGCTGACGAGTCCCAAATAGGACGAAACGCCCGGAATACCAGCATCGTCTTGATGCCCTTGGAAGTCCGGGC
modifications: expressed or natural sequence
Take B3: under setting [1], the “Fold change” value is recorded as 0.8.

B4: RA359 (nucleic acid)
DNA: GCGCGTCCTGGATAGAATACCAGCATCGTCTTGATGCCCTTGGAAGTCTTCGCGGAAACGCGTACATCCAGCTGACGAGTCCCAAATAGGACGAAACGCGC
modifications: expressed or natural sequence
For the molecule B4, the “Fold change” value under setting [1] is given as 0.8.

B5: RA342 (nucleic acid)
DNA: GCGCGTCCTGGATTCGCGGAAACGCGTACGGAATACCAGCATCGTCTTGATGCCCTTGGAAGTCCGCATCCAGCTGACGAGTCCCAAATAGGACGAAACGCGC
modifications: expressed or natural sequence
Take B5: the “Fold change” value under setting [1] is 0.9.

B6: RA363 (nucleic acid)
DNA: GCGCGTCCTGGATTCGCGGAAACGCGTACATCCAGCTGACGAGTCCCACGGAATACCAGCATCGTCTTGATGCCCTTGGAAGTCCGAATAGGACGAAACGCGC
modifications: expressed or natural sequence
On to B6, for which, under setting [1], the “Fold change” value was 0.8.

B7: RA362 (nucleic acid)
DNA: GCGCGTCCTGGAGGAATACCAGCATCGTCTTGATGCCCTTGGAAGTCCTTCGCGGAAACGCGTACATCCAGCTGACGAGTCCCAAATAGGACGAAACGCGC
modifications: expressed or natural sequence
For the molecule B7, the “Fold change” value under setting [1] was 0.8.

B8: RA341 (nucleic acid)
DNA: GCGGAATACCAGCATCGTCTTGATGCCCTTGGAAGTCCGCGTCCTGGATTCGCGGAAACGCGTACATCCAGCTGACGAGTCCCAAATAGGACGAAACGCGC
modifications: expressed or natural sequence
Turning to B8, under setting [1], the “Fold change” value is recorded as 0.9.

B9: RA360 (nucleic acid)
DNA: B8 DNA with G3A, C38T
modifications: expressed or natural sequence
B9: the “Fold change” value under setting [1] was found to be 0.8.

B10: RA355 (nucleic acid)
DNA: GCGCGTCCTGGATTCGCGGAAACGCGTACATCGAGAATACCAGCATCGTCTTGATGCCCTTGGAAGTCTCCAGCTGACGAGTCCCAAATAGGACGAAACGCGC
modifications: expressed or natural sequence
Consider B10, for which the “Fold change” value under setting [1] was determined as 0.9.

B11: RA353 (nucleic acid)
DNA: GCGCGTCCTGGATTCGCGGAAACGCGTACATCCAGCTGACGAGTCCCAAATAGGACGAAACGCCGGAATACCAGCATCGTCTTGATGCCCTTGGAAGTCCGGCGC
modifications: expressed or natural sequence
Regarding B11, the “Fold change” value under setting [1] stood at 0.9.

B12: RA033 (nucleic acid)
DNA: GCGCGTCCTGGATTCGCGGAAACGCGTACATCCAGCTGACGAGTCCCAAATCCGGAATACCAGCATCGTCTTGATGCCCTTGGAAGTCCGGAGGACGAAACGCGC
modifications: expressed or natural sequence
Regarding B12, the “Fold change” value under setting [2] came out at 2.3 fold.

B13: RA357 (nucleic acid)
DNA: GCGCGTCCTGGATTCGCGGAAACGCGTACATCCAGCTGACGAGTCCCAAATAGGACGGGAATACCAGCATCGTCTTGATGCCCTTGGAAGTCCAAACGCGC
modifications: expressed or natural sequence
On to B13, for which the “Fold change” value under setting [1] stood at 0.8.

B14: RA346 (nucleic acid)
DNA: GCGCGTCCTGGATTCGCGGAAACGCGTACATCCAGCTGGAATACCAGCATCGTCTTGATGCCCTTGGAAGTCCGACGAGTCCCAAATAGGACGAAACGCGC
modifications: expressed or natural sequence
Regarding B14, the “Fold change” value under setting [1] is 0.9.

B15: RA340 (nucleic acid)
DNA: GCGCAGTGATACCAGCATCGTCTTGATGCCCTTGGCAGCACTGTCCTGGATTCGCGGAAACGCGTACATCCAGCTGACGAGTCCCAAATAGGACGAAACGCGC
modifications: expressed or natural sequence
In the case of B15, the “Fold change” value under setting [1] is on record as 0.9.

B16: RA344 (nucleic acid)
DNA: GCGCGTCCTGGATTCGCGGAAACCCGGAATACCAGCATCGTCTTGATGCCCTTGGAAGTCCGGGCGTACATCCAGCTGACGAGTCCCAAATAGGACGAAACGCGC
modifications: expressed or natural sequence
Consider B16, for which the “Fold change” value under setting [1] amounted to 0.9.

B17: RA350 (nucleic acid)
DNA: GCGCAGAATACCAGCATCGTCTTGATGCCCTTGGAAGTCTGTCCTGGATTCGCGGAAACGCGTACATCCAGCTGACGAGTCCCAAATAGGACGAAACGCGC
modifications: expressed or natural sequence
With B17, the “Fold change” value under setting [1] is 0.9.

B18: RA348 (nucleic acid)
DNA: GCGCGTCCTGGATTCGCGGAAACGCGTACATCCAGCTGACGACGAGAATACCAGCATCGTCTTGATGCCCTTGGAAGTCTCGGTCCCAAATAGGACGAAACGCGC
modifications: expressed or natural sequence
On to B18, for which the “Fold change” value under setting [1] is 0.9.

B19: RA345 (nucleic acid)
DNA: GCGCGTCCTGGATTCGCGGAAACGCGTACATCCAGCTGACGAGTCCCAAATAGGACGAAACGCGAGAATACCAGCATCGTCTTGATGCCCTTGGAAGTCTC
modifications: expressed or natural sequence
Consider B19, for which the “Fold change” value under setting [1] is 0.9.

B20: RA349 (nucleic acid)
DNA: GCGCGTCCTGGATTCGCGGAAACGCGTACATCCAGCTGACGAGGAGAATACCAGCATCGTCTTGATGCCCTTGGAAGTCTCTCCCAAATAGGACGAAACGCGC
modifications: expressed or natural sequence
With B20, the “Fold change” value under setting [1] is recorded as 0.9.

B21: RA358 (nucleic acid)
DNA: B20 DNA with G44C, A45G, T80C, C81G
modifications: expressed or natural sequence
Regarding B21, the “Fold change” value under setting [1] was 0.8.

B22: RA356 (nucleic acid)
DNA: GCGCGTCCTGGATTCGCGGAAACGCGTACATCCAGCTGACGAGTCCCAAATAGGACGAAAGAGAATACCAGCATCGTCTTGATGCCCTTGGAAGTCTCCGCGC
modifications: expressed or natural sequence
With B22, under setting [1], the “Fold change” value was determined as 0.8.

B23: RA035 (nucleic acid)
DNA: B22 DNA with G61C, A62G, T97C, C98G
modifications: expressed or natural sequence
Take B23: under setting [2], the “Fold change” value was 2.2 fold.

B24: RA351 (nucleic acid)
DNA: GCGCGTCCTGGATTCGCGGAAACGCGTACATCCAGCGAGAATACCAGCATCGTCTTGATGCCCTTGGAAGTCTCTGACGAGTCCCAAATAGGACGAAACGCGC
modifications: expressed or natural sequence
For B24, the “Fold change” value under setting [1] is reported as 0.9.

B25: RA034 (nucleic acid)
DNA: GCGCGTCCTGGATTCGCGGAAACGCGTACATCCAGCTGACGAGAGAATACCAGCATCGTCTTGATGCCCTTGGAAGTCTCGTCCCAAATAGGACGAAACGCGC
modifications: expressed or natural sequence
Take B25: the “Fold change” value under setting [2] is listed as 2.3 fold.

B26: RA354 (nucleic acid)
DNA: GCGCGTCCTGGATTCGCGGAAACGCGTACATCCAGCTGACGAGTCCCAAATAGGAGTGATACCAGCATCGTCTTGATGCCCTTGGCAGCACTACGAAACGCGC
modifications: expressed or natural sequence
With B26, the “Fold change” value under setting [1] was found to be 0.9.

B27: RA352 (nucleic acid)
DNA: GCGCGTCCTGGATTCGCGGAAACGCGTACATCCAGCTGACGAGTCCCAAATAGGACGAAACGCGCGAGAATACCAGCATCGTCTTGATGCCCTTGGAAGTCTCGC
modifications: expressed or natural sequence
For B27, the “Fold change” value under setting [1] turned out to be 0.9.
